Key:
[1] = target: T1, AVI-tagged DOK3(1–330 aa) (UniProt Q7L591 1-330); experiment: BLI
T1 sequence (looked up): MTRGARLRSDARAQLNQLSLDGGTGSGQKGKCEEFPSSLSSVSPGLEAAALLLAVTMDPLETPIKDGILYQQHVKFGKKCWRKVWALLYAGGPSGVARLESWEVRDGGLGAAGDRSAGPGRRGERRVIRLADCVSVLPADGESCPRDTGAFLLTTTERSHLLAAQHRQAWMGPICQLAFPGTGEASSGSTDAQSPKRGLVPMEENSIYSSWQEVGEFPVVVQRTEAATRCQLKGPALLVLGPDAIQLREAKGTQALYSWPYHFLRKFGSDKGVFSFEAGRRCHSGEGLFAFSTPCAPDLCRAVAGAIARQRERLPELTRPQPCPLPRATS

[2] = target: T1, AVI-tagged DOK3(1–330 aa); experiment: BLI; remark: listed apart in the source

- Kd [1]: 15.5 µM
- KD with SAB [2]: 1.77 µM
B1: His-PRDX1 recombinant protein (WT, 1-199 aa) (natural protein, UniProt Q06830 1-199, looked up)
chain: MSSGNAKIGHPAPNFKATAVMPDGQFKDISLSDYKGKYVVFFFYPLDFTFVCPTEIIAFSDRAEEFKKLNCQVIGASVDSHFCHLAWVNTPKKQGGLGPMNIPLVSDPKRTIAQDYGVLKADEGISFRGLFIIDDKGILRQITVNDLPVGRSVDETLRLVQAFQFTDKHGEVCPAGWKPGSDTIKPDVQKSKEYFSKQK

From publication PMC12399193 (Acta Pharmaceutica Sinica. B, 2025)
